Data from paper PMC5359885.
pKd: −log10 of the molar value.

Columns and labels:
[1] = target: F-actin (G-actin from Cytoskeleton polymerized to F-actin) (UniProt P68135); assay: co-sedimentation; Actin Binding Protein Spin-Down Assay kit; F-actin (7 μM) incubated with His-tagged protein (SURFIN4.2^WRD2-His 12.5 to 0.0 μM; His control 7.0 μM; Pf332^WRD 4.2 μM) at room temperature 30 min; 150,000×g 1.5 h at 24 °C; Western blot of supernatant and pellet, densitometry, one-site specific binding model
[2] = target: purified human spectrin (Sigma) (human) (UniProt P02549); assay: ELISA; spectrin coated on the plate; serially diluted His-tagged protein in PBS, overnight at 4 °C; detected with anti-His tag antibody; Scatchard analysis
Spectrin (Homo sapiens) = Spectrin (Homo sapiens) (UniProt P02549); conditions: cited from earlier work

Sequence of UniProt P02549 (P02549 whole entry, chain 1 of 2): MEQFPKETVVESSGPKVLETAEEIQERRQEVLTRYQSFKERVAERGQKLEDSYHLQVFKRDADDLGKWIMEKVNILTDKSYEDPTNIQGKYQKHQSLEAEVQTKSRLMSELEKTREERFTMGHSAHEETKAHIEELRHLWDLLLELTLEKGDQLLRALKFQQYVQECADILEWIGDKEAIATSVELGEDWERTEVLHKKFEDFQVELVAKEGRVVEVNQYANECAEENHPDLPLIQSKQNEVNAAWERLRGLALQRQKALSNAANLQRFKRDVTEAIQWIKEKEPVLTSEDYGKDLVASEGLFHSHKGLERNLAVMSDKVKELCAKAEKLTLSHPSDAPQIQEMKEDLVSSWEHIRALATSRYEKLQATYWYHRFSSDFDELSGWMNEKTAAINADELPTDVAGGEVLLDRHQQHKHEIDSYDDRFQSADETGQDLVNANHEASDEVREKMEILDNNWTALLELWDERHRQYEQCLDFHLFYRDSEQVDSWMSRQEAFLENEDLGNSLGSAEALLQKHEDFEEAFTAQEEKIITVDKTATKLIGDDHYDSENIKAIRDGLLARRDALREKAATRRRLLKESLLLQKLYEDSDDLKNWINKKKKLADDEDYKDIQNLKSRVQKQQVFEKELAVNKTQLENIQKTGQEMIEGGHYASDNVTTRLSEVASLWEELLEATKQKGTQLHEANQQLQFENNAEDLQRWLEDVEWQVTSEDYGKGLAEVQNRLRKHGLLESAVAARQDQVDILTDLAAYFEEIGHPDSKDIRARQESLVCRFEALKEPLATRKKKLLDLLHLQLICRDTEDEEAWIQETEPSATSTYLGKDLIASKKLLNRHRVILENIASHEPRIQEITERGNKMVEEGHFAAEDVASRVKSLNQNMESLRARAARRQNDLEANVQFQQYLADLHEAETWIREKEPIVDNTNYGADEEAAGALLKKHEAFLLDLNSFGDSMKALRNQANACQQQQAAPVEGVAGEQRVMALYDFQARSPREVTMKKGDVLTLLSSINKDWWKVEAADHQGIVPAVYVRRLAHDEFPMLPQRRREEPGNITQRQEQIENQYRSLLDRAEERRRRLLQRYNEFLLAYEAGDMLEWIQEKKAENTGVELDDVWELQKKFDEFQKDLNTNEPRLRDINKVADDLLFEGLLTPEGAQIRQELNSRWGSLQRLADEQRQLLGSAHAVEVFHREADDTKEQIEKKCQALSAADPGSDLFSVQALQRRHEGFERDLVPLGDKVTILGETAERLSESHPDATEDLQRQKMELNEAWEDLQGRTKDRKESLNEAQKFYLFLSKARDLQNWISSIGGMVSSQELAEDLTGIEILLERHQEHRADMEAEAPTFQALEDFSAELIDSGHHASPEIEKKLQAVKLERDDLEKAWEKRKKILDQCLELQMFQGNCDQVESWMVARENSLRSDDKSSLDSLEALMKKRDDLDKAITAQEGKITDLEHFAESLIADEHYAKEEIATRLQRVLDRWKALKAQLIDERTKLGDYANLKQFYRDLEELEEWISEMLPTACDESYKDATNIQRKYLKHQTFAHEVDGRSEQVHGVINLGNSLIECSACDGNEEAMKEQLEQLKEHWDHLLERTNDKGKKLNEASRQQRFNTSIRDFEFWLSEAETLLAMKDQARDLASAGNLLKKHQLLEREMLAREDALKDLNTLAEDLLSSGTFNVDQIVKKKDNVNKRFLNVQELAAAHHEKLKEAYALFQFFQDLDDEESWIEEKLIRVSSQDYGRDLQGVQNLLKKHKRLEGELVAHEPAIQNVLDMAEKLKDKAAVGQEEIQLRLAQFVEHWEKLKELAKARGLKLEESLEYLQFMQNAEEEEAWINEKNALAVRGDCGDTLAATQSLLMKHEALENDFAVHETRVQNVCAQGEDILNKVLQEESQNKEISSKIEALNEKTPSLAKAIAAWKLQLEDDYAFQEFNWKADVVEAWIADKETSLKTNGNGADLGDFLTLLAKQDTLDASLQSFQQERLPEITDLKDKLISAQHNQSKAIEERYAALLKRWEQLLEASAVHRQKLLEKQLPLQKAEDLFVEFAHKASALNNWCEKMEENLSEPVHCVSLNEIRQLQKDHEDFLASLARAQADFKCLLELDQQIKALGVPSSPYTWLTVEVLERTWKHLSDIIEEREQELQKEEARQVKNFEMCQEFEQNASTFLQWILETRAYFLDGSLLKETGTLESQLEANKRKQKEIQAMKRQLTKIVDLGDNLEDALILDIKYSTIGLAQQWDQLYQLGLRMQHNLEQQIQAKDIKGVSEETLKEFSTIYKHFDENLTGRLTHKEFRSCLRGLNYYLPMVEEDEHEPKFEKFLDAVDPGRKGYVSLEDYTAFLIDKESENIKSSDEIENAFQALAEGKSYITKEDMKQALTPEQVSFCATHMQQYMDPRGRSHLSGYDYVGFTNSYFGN
Sequence of UniProt P02549 (P11277 2-2137, chain 2 of 2, further chain): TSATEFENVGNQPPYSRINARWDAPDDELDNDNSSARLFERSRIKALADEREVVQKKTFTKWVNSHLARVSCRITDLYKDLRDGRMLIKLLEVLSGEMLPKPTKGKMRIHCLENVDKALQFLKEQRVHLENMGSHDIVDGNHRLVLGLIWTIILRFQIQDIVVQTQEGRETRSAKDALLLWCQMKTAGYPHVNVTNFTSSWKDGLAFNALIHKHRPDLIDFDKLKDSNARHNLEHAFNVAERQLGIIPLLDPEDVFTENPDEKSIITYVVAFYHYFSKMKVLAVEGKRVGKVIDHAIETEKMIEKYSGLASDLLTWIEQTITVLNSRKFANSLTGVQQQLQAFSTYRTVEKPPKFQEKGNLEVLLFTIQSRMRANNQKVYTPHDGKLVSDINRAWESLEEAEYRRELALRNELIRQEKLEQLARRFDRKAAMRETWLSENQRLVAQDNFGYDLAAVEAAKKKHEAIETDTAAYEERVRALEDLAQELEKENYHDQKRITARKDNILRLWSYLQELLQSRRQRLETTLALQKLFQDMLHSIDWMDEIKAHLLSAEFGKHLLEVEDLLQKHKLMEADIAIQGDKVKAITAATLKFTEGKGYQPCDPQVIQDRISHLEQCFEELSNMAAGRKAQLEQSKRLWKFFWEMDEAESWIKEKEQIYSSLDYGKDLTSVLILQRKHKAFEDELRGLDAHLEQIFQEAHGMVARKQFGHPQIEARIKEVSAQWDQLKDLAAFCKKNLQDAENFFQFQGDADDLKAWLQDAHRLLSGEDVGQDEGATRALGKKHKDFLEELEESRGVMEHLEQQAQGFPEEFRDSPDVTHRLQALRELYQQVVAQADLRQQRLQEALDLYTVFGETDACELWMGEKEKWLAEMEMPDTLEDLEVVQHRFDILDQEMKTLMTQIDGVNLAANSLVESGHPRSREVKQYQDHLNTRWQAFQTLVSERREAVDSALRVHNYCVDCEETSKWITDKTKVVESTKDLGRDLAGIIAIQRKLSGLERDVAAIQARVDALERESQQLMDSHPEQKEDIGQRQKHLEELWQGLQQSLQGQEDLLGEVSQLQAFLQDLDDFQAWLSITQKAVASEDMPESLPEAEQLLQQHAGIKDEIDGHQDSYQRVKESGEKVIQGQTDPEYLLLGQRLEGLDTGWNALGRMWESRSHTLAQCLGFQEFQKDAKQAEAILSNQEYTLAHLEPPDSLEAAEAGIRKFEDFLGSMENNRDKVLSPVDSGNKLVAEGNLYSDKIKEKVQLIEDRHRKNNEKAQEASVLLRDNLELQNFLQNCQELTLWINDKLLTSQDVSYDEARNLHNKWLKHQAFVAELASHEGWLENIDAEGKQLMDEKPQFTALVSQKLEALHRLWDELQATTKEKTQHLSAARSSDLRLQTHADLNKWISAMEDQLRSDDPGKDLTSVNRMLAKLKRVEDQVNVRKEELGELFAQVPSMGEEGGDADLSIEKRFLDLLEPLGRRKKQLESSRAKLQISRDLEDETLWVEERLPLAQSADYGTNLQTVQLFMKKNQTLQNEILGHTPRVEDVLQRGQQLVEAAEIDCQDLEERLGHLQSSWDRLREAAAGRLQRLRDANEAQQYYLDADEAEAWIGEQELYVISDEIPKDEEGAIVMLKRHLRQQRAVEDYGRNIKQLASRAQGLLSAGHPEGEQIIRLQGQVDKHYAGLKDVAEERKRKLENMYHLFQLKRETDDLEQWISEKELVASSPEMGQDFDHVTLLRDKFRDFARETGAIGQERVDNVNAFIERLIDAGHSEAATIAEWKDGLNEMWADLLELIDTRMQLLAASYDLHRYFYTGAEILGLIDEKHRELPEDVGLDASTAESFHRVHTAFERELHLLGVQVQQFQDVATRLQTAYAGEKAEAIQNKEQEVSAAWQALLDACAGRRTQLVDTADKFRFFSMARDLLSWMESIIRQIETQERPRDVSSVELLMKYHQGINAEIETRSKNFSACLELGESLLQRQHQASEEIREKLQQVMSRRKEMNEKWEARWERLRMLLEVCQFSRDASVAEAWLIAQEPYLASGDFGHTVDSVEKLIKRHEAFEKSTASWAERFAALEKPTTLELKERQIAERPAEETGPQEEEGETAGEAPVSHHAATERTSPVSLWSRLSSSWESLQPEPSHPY

Substance | pKd [1] | pKd [2] | pKd (Spectrin (Homo sapiens))
His-tagged recombinant SURFIN4.2 WRD2 (second tryptophan-rich domain of SURFIN4.2, amino acids 1349-1567), expressed in E. coli (domain or fragment) | 5.29 | 6.29 | –
RESA (from UniProt P13830) | – | – | 6.06
